experiment: soluble on expression in E. coli; label from the status in PepcDB or PDB records

Row | Sequence | soluble on expression in E. coli
1 | MELKSTRHTKYLCNYHFVWIPKHRRNTLVNEIAEYTKEVLKSIAEELGCEIIALEVMPDHIHLFVNCPPRYAPSYLANYFKGKSARLILKKFPQLNKGKLWTRSYFVATAGNVSSEVIKKYIEEQWRKEGEEE | soluble
2 | MELPLDKIKLPPGFSISVWANVPDARTMTLGDKGTVFVGSKSAGNVYAITENAGKRQIRIIASKLKMPNGVAFHDGALYVSSVNRILRFDNIENTLDQPLPPRIITADYPKETYHGWRFIAFGPDGWLYVPVGSSCNVCETDLEHYALISRIRPDGSNYEVFAKGVRNTEGFDWHPVTKALWFTDISREWMGDNLPPDELNHASNQGLDFGFPYCHGKEVSDPKLGAKRDCNKFIPPAVELDPHVAPMGMRFYTGTMFPAEYHNGIFIAEHGSWNRSTKIGYRLEWVQLEVNEVARKEIFAEGWLQENEAWGRPVDVLVMPDGALLVSDDMAGVVYRISYDQPLEHHHHHH | soluble
3 | MELPPKVKNILLLDSEGKRVAVKYYSDDWPTNSAQEAFEKSVFTKTQKTNARTEVEVTALENNIVVYKFVQDLHFFVTGGEEENELILASVLEGLFDAVTLLLRSNVDKREALDNLDLIFLSFDEIIDGGIVLETDANVIAGKAGINSTDPNAPLSEQTISQALATAREHLTRSLMK | soluble
4 | MELTAFRHQVGGHFGILLCNGHVAKPSNLREMAFYKVMNSELKHFSPAFCKEVDVRATVNPSTGQIVVETLEKLDCHKKKSSSKHERSSTGFRQTTDGRVTVDTEKQWNPWAAGCQCKVVERMLKELEPTPFLLLENVVAHYTRPCVLDLKIGTRQHGDDASESKRHRQLMKCRHSTSATLGVRVVGMQLYEAETKSYSYVEKQEGRRIDAAGFRGYVKRFIKCCGRSRAARIRQKLSKLRSLLAEFEGYRFFSASILIAFDAEAADSSSDDAVKVCIIDFAHSTFSGFFEDLAYSGADEGCLLGLDSIVEAMEPIVSKDPVTPSSSFEKKK | not soluble
5 | MELWRQCTHWLIQCRVLPPSHRVTWEGAQVCELAQALRDGVLLCQLLNNLLPQAINLREVNLRPQMSQFLCLKNIRTFLSTCCEKFGLKRSELFEAFDLFDVQDFGKVIYTLSALSWTPIAQNKGIMPFPTEDSALNDEDIYSGLSDQIDDTAEEDEDLYDCVENEEAEGDEIYEDLMRLESVPTPPKMTEYDKRCCCLREIQQTEEKYTDTLGSIQQHFMKPLQRFLKPQDMETIFVNIEELFSVHTHFLKELKDALAGPGATTLYQVFIKYKERFLVYGRYCSQVESASKHLDQVATAREDVQMKLEECSQRANNGRFTLRDLLMVPMQRVLKYHLLLQELVKHTQDATEKENLRLALDAMRDLAQCVNEVKRDNETLRQITNFQLSIENLDQSLANYGRPKIDGELKITSVERRSKTDRYAFLLDKALLICKRRGDSYDLKASVNLHSFQVRDDSSGERDNKKWSHMFLLIEDQGAQGYELFFKTRELKKKWMEQFEMAISNIYPENATANGHDFQMFSFEETTSCKACQMLLRGTFYQGYRCYRCRAPAHKECLGRVPPCGRHGQDFAGTMKKDKLHRRAQDKKRNELGLPKMEVFQEYYGIPPPPGAFGPFLRLNPGDIVELTKAEAEHNWWEGRNTATNEVGWFPCNRVHPYVHGPPQDLSVHLWYAGPMERAGAEGILTNRSDGTYLVRQRVKDTAEFAISIKYNVEVKHIKIMTSEGLYRITEKKAFRGLLELVEFYQQNSLKDCFKSLDTTLQFPYKEPERRAISKPPAGSTKYFGTAKARYDFCARDRSELSLKEGDIIKILNKKGQQGWWRGEIYGRIGWFPSNYVEEDYSEYC | soluble
6 | MELYLIRHGIAEAQKTGIKDEERELTQEGKQKTEKVAYRLVKLGRQFDLIVTSPLIRARQTAEILLASGLSCQLEESNHLAPNGNIFNWLDYWLKPKNFPENAQIAIVGHEPCLSNWTEILLWGEAKDSLVLKKAGMIGLKLPEIGSPVGRSQMFWLTPPRYLLLEHHHHHH | soluble
7 | MEMEKEFEQIDKSGSWAAIYQDIRHEASDFPCRVAKLPKNKNRNRYRDVSPFDHSRIKLHQEDNDYINASLIKMEEAQRSYILTQGPLPNTCGHFWEMVWEQKSRGVVMLNRVMEKGSLKCAQYWPQKEEKEMIFEDTNLKLTLISEDIKSYYTVRQLELENLTTQETREILHFHYTTWPDFGVPESPASFLNFLFKVRESGSLSPEHGPVVVHCSAGIGRSGTFCLADTCLLLMDKRKDPSSVDIKKVLLDMRKFRMGLIATAEQLRFSYLAVIEGAKFIMGDSSVQDQWKELSHEDLEPPPEHIPPPPRPPKRILEPHNGKCREFFPN | soluble
8 | MEMNRRRSRGFMIAKLMPFCKAVKSPTPSQDLYNNVHYTSSTTTSYARQPDFNNYVTATTPLPPKVSFLLQPSLAPEGKDMEKKLNMMAEKLIGRGINGVDDCVDARAASYISSVRERFKADQYCEKLTTVISLDDEN | soluble
9 | MEMRELVGQFVERMQVLRHLVPILPDEQLYVRFESDDETALLLIGKESAARGMENDERKTLTVRGSKEALASLLNGELKLQQLVRLREVHVSGSFRQLLLLESLLHLAKPYRHVG | not soluble
10 | MENKYTHGVLFYHEHSGLKNINQGIGEVTTALSSICKHLSIQLSENEGDIIKYCQEIKTKNYAKDVDILFILGGDGTVNELINGVMTHDLQLPIGILPGGTFNDFTKTLNIAPNHKQASEQMISAQVGKYDVIKINNQYALNFVGLGLIVQNAENVQDGSKDIFGKLSYIGSTVKTLLNPTQFNYQLSIDDKTYSGETTMILTANGPFIGGSRIPLTDLSPQDGELNTFIFNEQSFSILNDIFKKRDSMNWNEITQGIEHIPGKKISLTTDPAMKVDIDGEISLETPIDIEVIPNAIQLLTVNDLLEHHHHHH | not soluble
11 | MENLYFQGLEHHHHHHENSSPYTSEHFHYTVTDIKDLTKLGAIYDKTKKYWVYQGKPVMPDQFTFELLDFLHQLTHLSFSKMKALLERSHSPYYMLNRDRTLKNITETCKACAQVNASKS | soluble
12 | MENPPAEPFFLDASPGKRFCLYHSPAGDTPLNQVFIYLHPFAEEMNKSRRMAALQAKAFAAMGFGVLQIDLYGCGDSAGDFGEATWEIWKNDVEFAYQWLIQQGFTSVHFWGLRLGALLALDYAGKAETGSAKFILWQPVINGKSFLTQFLRLRLVNKLLSDDSDKAQNVHLREELRAGKSLEIAGYTLSPAMAAAIDELKLGQLVVGNSEIYWFEITPEAGRGLPPAGAAVVEAWNQSGVYPEVTLIPGLPFWATQEISECPALLAATAKLFAGIQP | not soluble
13 | MENQDYTVRLTVQASPQEVFKQINRVTAWWTKNLQGDSEKLNDVFTVNFPGMHVSTQKLIECIPDKKVTWMVTDSHLTFIQRKTEWTDTTIQFDISRNVKHTEVLFTHKGLNPAIECYGDCAKGWDYFIKGSLFKLLTEGTGTPELEHHHHHH | soluble
14 | MENVTNFPLLQLPSKTIQVVLSIMSPFELINFSKSSAEAKKVVKQFANAKRRELYKFKVCIGLIPFVAFV | not soluble
15 | MEPHSLRYNLMVLSQDESVQSGFLAEGHLDGQPFLRYDRQKRRAKPQGQWAEDVLGAETWDTETEDLTENGQDLRRTLTHIKDQKGGLHSLQEIRVCEIHEDSSTRGSRHFYYNGELFLSQNLETQESTVPQSSRAQTLAMNVTNFWKEDAMKTKTHYRAMQADCLQKLQRYLKSGVAIRRTVPPMVNVTCSEVSEGNITVTCRASSFYPRNITLTWRQDGVSLSHNTQQWGDVLPDGNGTYQTWVATRIRQGEEQRFTCYMEHSGNHGTHPVPSGKVLVLQSQRTDFPYVSAAMPCFVIIIILCVPCCKKKTSAAEGP | soluble
16 | MEPSSLELPADTVQRIAAELKCHPTDERVALHLDEEDKLRHFRECFYIPKIQDLPPVDLSLVNKDENAIYFLGNSLGLQPKMVKTYLEEELDKWAKIAAYGHEVGKRPWITGDESIVGLMKDIVGANEKEIALMNALTVNLHLLMLSFFKPTPKRYKILLEAKAFPSDHYAIESQLQLHGLNIEESMRMIKPREGEETLRIEDILEVIEKEGDSIAVILFSGVHFYTGQHFNIPAITKAGQAKGCYVGFDLAHAVGNVELYLHDWGVDFACWCSYKYLNAGAGGIAGAFIHEKHAHTIKPALVGWFGHELSTRFKMDNKLQLIPGVCGFRISNPPILLVCSLHASLEIFKQATMKALRKKSVLLTGYLEYLIKHNYGKDKAATKKPVVNIITPSHVEERGCQLTITFSVPNKDVFQELEKRGVVCDKRNPNGIRVAPVPLYNSFHDVYKFTNLLTSILDSAETKN | soluble
17 | MEPTEKSMLLETTSTTKMETKYEDMLPVMAEKMDVEEFVSELCKGFSLLADPERHLITAESLRRNSGILGIEGMSKEDAQGMVREGDLDGDGALNQTEFCVLMVRLSPEMMEDAETWLEKALTQELCNHNLSSMP | soluble
18 | MEQLQVGQVTLTWLNGGVTHLDGGAMFGVVPKPLWSKKYPPNDQNQIELRTDPILVEAGGKRLLIESGIGNGKLTDKQKRNFGVTEESSLDESLAALGLTRGDIDIVIMTHLHFDHACGLTVWEDGRLVPAFPRAAIITSDVEWEEMRAPNIRSRNTYWKENWEPIAEQVIPFTKETEVVSGIRLIHTGGHSAGHAIVLIESDGEMAIHLGDLLGTHAHQNVLWVMAYDDYPMDSIFAKQRWLPYGIERNAWFTFYHDAYYRAVKWREDGTIAEQVKRNRPTLLEHHHHHH | soluble
19 | MEQPKYKRVVLKLSGEALAGKQGFGIQPAVIQSIAKQVKEVVELGVEVAIVVGGGNIWRGKTGSEMGMDRATADYMGMLATVMNALALQDSLEQLGVETRVQTSIEMRQVAEPYIRRRAIRHLEKKRVVIFAAGTGNPYFSTDTTAALRAAEIEADVILMAKNNVDGVYSADPNVDANALKYDELSYLDVIKQGLGVMDSTASSLCMDNNIPLIVFSIMEEGNIKRAVLGENIGTIVRGK | not soluble
20 | MEQRRVTDFFARRRPGPPRIAPPKLACRTPSPARPALRAPASATSGSRKRARPPAAPGRDQARPPARRRLRLSVDEVSSPSTPEAPDIPACPSPGQKIKKSTPAAGQPPHLTSAQDQDTISELASCLQRARELGARVRALKASAQDAGESCTPEAEGRPEEPCGEKAPAYQRFHALAQPGLPGLVLPYKYQVLAEMFRSMDTIVGMLHNRSETPTFAKVQRGVQDMMRRRFEERNVGQIKTVYPASYRFRQERSVPTFKDGTRRSDYQLTIEPLLEQEADGAAPQLTASRLLQRRQIFSQKLVEHVKEHHKAFLASLSPAMVVPEDQLTRWHPRFNVDEVPDIEPAALPQPPATEKLTTAQEVLARARNLISPRMEKALSQLALRSAAPSSPGSPRPALPATPPATPPAASPSALKGVSQDLLERIRAKEAQKQLAQMTRCPEQEQRLQRLERLPELARVLRSVFVSERKPALSMEVACARMVGSCCTIMSPGEMEKHLLLLSELLPDWLSLHRIRTDTYVKLDKAADLAHITARLAHQTRAEEGL | soluble
21 | MERDRISALKRSFEVEEVETPNSTPPRRVQTPLLRATVASSTQKFQDLGVKNSEPSARHVDSLSQRSPKASLRRVELSGPKAAEPVSRRTELSIDISSKQVENAGAIGPSRFGLKRAEVLGHKTPEPAPRRTEITIVKPQESAHRRMEPPASKVPEVPTAPATDAAPKRVEIQMPKPAEAPTAPSPAQTLENSEPAPVSQLQSRLEPKPQPPVAEATPRSQEATEAAPSCVGDMADTPRDAGLKQAPASRNEKAPVDFGYVGIDSILEQMRRKAMKQGFEFNIMVVGQSGLGKSTLINTLFKSKISRKSVQPTSEERIPKTIEIKSITHDIEEKGVRMKLTVIDTPGFGDHINNENCWQPIMKFINDQYEKYLQEEVNINRKKRIPDTRVHCCLYFIPATGHSLRPLDIEFMKRLSKVVNIVPVIAKADTLTLEERVHFKQRITADLLSNGIDVYPQKEFDEDSEDRLVNEKFREMIPFAVVGSDHEYQVNGKRILGRKTKWGTIEVENTTHCEFAYLRDLLIRTHMQNIKDITSSIHFEAYRVKRLNEGSSAMANGVEEKEPEAPEM | not soluble

From the DeepSol protein solubility set
